± gives the uncertainty stated by the source.
Assay: abundance fitness (aPCA) (normalised: wild type 0, dead -1); higher = more abundant; growth selection in yeast, the domain comes from the species named
Conditions: Homo sapiens
Transcription factor SOX-4 E79V, Q06945 showed an abundance fitness of -0.476 ± 0.13. Work on Transcription factor SOX-4 R96S, Q06945 yielded an abundance fitness of -0.162 ± 0.17. With Transcription factor SOX-4 R75K, Q06945 the abundance fitness was 0.07 ± 0.046.

Same assay, conditions: Saccharomyces cerevisiae (strain ATCC 204508 / S288c)
With “E3 ubiquitin-protein ligase RSP5 G336W, P39940” the abundance fitness was -0.558 ± 0.054. With “E3 ubiquitin-protein ligase RSP5 E344N, P39940” the abundance fitness was -0.032 ± 0.081. With “E3 ubiquitin-protein ligase RSP5 N353V, P39940” the abundance fitness was -0.217 ± 0.044. Substance “E3 ubiquitin-protein ligase RSP5 R355K, P39940” has an abundance fitness of 0.033 ± 0.066. Substance “E3 ubiquitin-protein ligase RSP5 D361T, P39940” has an abundance fitness of -0.562 ± 0.065. Work on “E3 ubiquitin-protein ligase RSP5 Y348W, P39940” yielded an abundance fitness of -0.147 ± 0.049. “E3 ubiquitin-protein ligase RSP5 W359N, P39940” gave an abundance fitness of -0.198 ± 0.091. Substance “E3 ubiquitin-protein ligase RSP5 P334T, P39940” has an abundance fitness of -0.857 ± 0.069. In the case of “E3 ubiquitin-protein ligase RSP5 G324E, P39940”, the abundance fitness is reported as 0.216 ± 0.071. With “E3 ubiquitin-protein ligase RSP5 T356D, P39940” the abundance fitness was -0.405 ± 0.08. For “E3 ubiquitin-protein ligase RSP5 L330A, P39940”, the abundance fitness was 0.005 ± 0.046. Work on “E3 ubiquitin-protein ligase RSP5 S328A, P39940” yielded an abundance fitness of -0.172 ± 0.046. Substance “E3 ubiquitin-protein ligase RSP5 T326M, P39940” has an abundance fitness of 0.008 ± 0.07. In the case of “E3 ubiquitin-protein ligase RSP5 T356E, P39940”, the abundance fitness is reported as -0.3 ± 0.054. In the case of “E3 ubiquitin-protein ligase RSP5 E344V, P39940”, the abundance fitness is reported as -0.308 ± 0.054. “E3 ubiquitin-protein ligase RSP5 E344P, P39940” gave an abundance fitness of -0.428 ± 0.071. “E3 ubiquitin-protein ligase RSP5 T326W, P39940” showed an abundance fitness of -0.207 ± 0.08. “E3 ubiquitin-protein ligase RSP5 L330P, P39940” gave an abundance fitness of -0.058 ± 0.069. Work on “E3 ubiquitin-protein ligase RSP5 E344C, P39940” yielded an abundance fitness of -0.264 ± 0.097. Work on “E3 ubiquitin-protein ligase RSP5 P343I, P39940” yielded an abundance fitness of 0.017 ± 0.099. For “E3 ubiquitin-protein ligase RSP5 G325D, P39940”, the abundance fitness was 0.051 ± 0.051. For “E3 ubiquitin-protein ligase RSP5 G336H, P39940”, the abundance fitness was -0.157 ± 0.2. “E3 ubiquitin-protein ligase RSP5 Q339I, P39940” showed an abundance fitness of -0.073 ± 0.069. Work on “E3 ubiquitin-protein ligase RSP5 T356M, P39940” yielded an abundance fitness of -0.005 ± 0.066. For “E3 ubiquitin-protein ligase RSP5 Y348H, P39940”, the abundance fitness was -0.699 ± 0.16. Substance “E3 ubiquitin-protein ligase RSP5 L330C, P39940” has an abundance fitness of 0.05 ± 0.062. In the case of “E3 ubiquitin-protein ligase RSP5 T358G, P39940”, the abundance fitness is reported as -0.535 ± 0.044. “E3 ubiquitin-protein ligase RSP5 E344T, P39940” gave an abundance fitness of -0.088 ± 0.051. Work on “E3 ubiquitin-protein ligase RSP5 T327Y, P39940” yielded an abundance fitness of -0.639 ± 0.27. For “E3 ubiquitin-protein ligase RSP5 Q366V, P39940”, the abundance fitness was 0.023 ± 0.11. Substance “E3 ubiquitin-protein ligase RSP5 V360C, P39940” has an abundance fitness of -0.018 ± 0.062. With “E3 ubiquitin-protein ligase RSP5 Q339T, P39940” the abundance fitness was -0.11 ± 0.065. With “E3 ubiquitin-protein ligase RSP5 W359K, P39940” the abundance fitness was -0.446 ± 0.11. In the case of “E3 ubiquitin-protein ligase RSP5 E344Q, P39940”, the abundance fitness is reported as -0.081 ± 0.053. With “E3 ubiquitin-protein ligase RSP5 G336V, P39940” the abundance fitness was -1.11 ± 0.061. In the case of “E3 ubiquitin-protein ligase RSP5 P343T, P39940”, the abundance fitness is reported as 0.014 ± 0.057. With “E3 ubiquitin-protein ligase RSP5 T358E, P39940” the abundance fitness was -0.761 ± 0.051. “E3 ubiquitin-protein ligase RSP5 E332W, P39940” gave an abundance fitness of -0.493 ± 0.046. “E3 ubiquitin-protein ligase RSP5 T342G, P39940” gave an abundance fitness of -0.255 ± 0.045. For “E3 ubiquitin-protein ligase RSP5 E344D, P39940”, the abundance fitness was 0.149 ± 0.087. Work on “E3 ubiquitin-protein ligase RSP5 W337S, P39940” yielded an abundance fitness of -0.622 ± 0.052. “E3 ubiquitin-protein ligase RSP5 T358N, P39940” gave an abundance fitness of -0.767 ± 0.12. Substance “E3 ubiquitin-protein ligase RSP5 G325F, P39940” has an abundance fitness of -0.132 ± 0.065. “E3 ubiquitin-protein ligase RSP5 Q339K, P39940” showed an abundance fitness of 0.026 ± 0.077. “E3 ubiquitin-protein ligase RSP5 P362Y, P39940” gave an abundance fitness of -1.01 ± 0.18. “E3 ubiquitin-protein ligase RSP5 D351R, P39940” showed an abundance fitness of -0.864 ± 0.05. Work on “E3 ubiquitin-protein ligase RSP5 R363M, P39940” yielded an abundance fitness of -0.233 ± 0.061. “E3 ubiquitin-protein ligase RSP5 N353K, P39940” showed an abundance fitness of -0.141 ± 0.08. “E3 ubiquitin-protein ligase RSP5 P343W, P39940” showed an abundance fitness of -0.313 ± 0.054. Substance “E3 ubiquitin-protein ligase RSP5 L330D, P39940” has an abundance fitness of 0.02 ± 0.065. Substance “E3 ubiquitin-protein ligase RSP5 P362Q, P39940” has an abundance fitness of -0.709 ± 0.093. With “E3 ubiquitin-protein ligase RSP5 Q339R, P39940” the abundance fitness was -0.051 ± 0.043. For “E3 ubiquitin-protein ligase RSP5 V350C, P39940”, the abundance fitness was -0.097 ± 0.066. In the case of “E3 ubiquitin-protein ligase RSP5 L330Q, P39940”, the abundance fitness is reported as -0.024 ± 0.053. With “E3 ubiquitin-protein ligase RSP5 H352W, P39940” the abundance fitness was -0.223 ± 0.049. “E3 ubiquitin-protein ligase RSP5 F349G, P39940” gave an abundance fitness of -0.703 ± 0.043. With “E3 ubiquitin-protein ligase RSP5 R363T, P39940” the abundance fitness was -0.256 ± 0.056. For “E3 ubiquitin-protein ligase RSP5 R363K, P39940”, the abundance fitness was -0.41 ± 0.057. For “E3 ubiquitin-protein ligase RSP5 T357I, P39940”, the abundance fitness was -0.735 ± 0.17. In the case of “E3 ubiquitin-protein ligase RSP5 T326P, P39940”, the abundance fitness is reported as -0.652 ± 0.079. “E3 ubiquitin-protein ligase RSP5 N353H, P39940” gave an abundance fitness of -0.563 ± 0.14. Substance “E3 ubiquitin-protein ligase RSP5 V350S, P39940” has an abundance fitness of -0.502 ± 0.078. In the case of “E3 ubiquitin-protein ligase RSP5 E344M, P39940”, the abundance fitness is reported as -0.103 ± 0.06. With “E3 ubiquitin-protein ligase RSP5 G325R, P39940” the abundance fitness was -0.063 ± 0.047. “E3 ubiquitin-protein ligase RSP5 R355E, P39940” showed an abundance fitness of -0.159 ± 0.053. Work on “E3 ubiquitin-protein ligase RSP5 E332T, P39940” yielded an abundance fitness of -0.14 ± 0.069. In the case of “E3 ubiquitin-protein ligase RSP5 G325E, P39940”, the abundance fitness is reported as -0.031 ± 0.067. “E3 ubiquitin-protein ligase RSP5 W337N, P39940” showed an abundance fitness of -0.641 ± 0.14. “E3 ubiquitin-protein ligase RSP5 E332S, P39940” gave an abundance fitness of -0.179 ± 0.053. “E3 ubiquitin-protein ligase RSP5 S335P, P39940” showed an abundance fitness of 0.047 ± 0.38. Substance “E3 ubiquitin-protein ligase RSP5 R364I, P39940” has an abundance fitness of -0.088 ± 0.11. “E3 ubiquitin-protein ligase RSP5 T356A, P39940” gave an abundance fitness of -0.237 ± 0.048. In the case of “E3 ubiquitin-protein ligase RSP5 A347L, P39940”, the abundance fitness is reported as -0.044 ± 0.045. “E3 ubiquitin-protein ligase RSP5 E338S, P39940” gave an abundance fitness of -0.19 ± 0.046. Substance “E3 ubiquitin-protein ligase RSP5 T358H, P39940” has an abundance fitness of -0.411 ± 0.076. In the case of “E3 ubiquitin-protein ligase RSP5 P362W, P39940”, the abundance fitness is reported as -1.21 ± 0.062. In the case of “E3 ubiquitin-protein ligase RSP5 V350F, P39940”, the abundance fitness is reported as 0.044 ± 0.13. Work on “E3 ubiquitin-protein ligase RSP5 T342W, P39940” yielded an abundance fitness of -0.865 ± 0.054. “E3 ubiquitin-protein ligase RSP5 T357H, P39940” showed an abundance fitness of -0.578 ± 0.16. Substance “E3 ubiquitin-protein ligase RSP5 R340M, P39940” has an abundance fitness of 0.052 ± 0.055. “E3 ubiquitin-protein ligase RSP5 G329H, P39940” showed an abundance fitness of -0.046 ± 0.083. For “E3 ubiquitin-protein ligase RSP5 T342D, P39940”, the abundance fitness was 0.173 ± 0.076. “E3 ubiquitin-protein ligase RSP5 L330F, P39940” showed an abundance fitness of -0.014 ± 0.071. Substance “E3 ubiquitin-protein ligase RSP5 S335Q, P39940” has an abundance fitness of -0.094 ± 0.051. Substance “E3 ubiquitin-protein ligase RSP5 G345L, P39940” has an abundance fitness of -0.303 ± 0.062. For “E3 ubiquitin-protein ligase RSP5 T354W, P39940”, the abundance fitness was -0.658 ± 0.065. Substance “E3 ubiquitin-protein ligase RSP5 P334M, P39940” has an abundance fitness of -0.702 ± 0.059. “E3 ubiquitin-protein ligase RSP5 E338Q, P39940” gave an abundance fitness of -0.027 ± 0.065. With “E3 ubiquitin-protein ligase RSP5 T357Y, P39940” the abundance fitness was -0.955 ± 0.31. In the case of “E3 ubiquitin-protein ligase RSP5 P343Y, P39940”, the abundance fitness is reported as -0.402 ± 0.35. In the case of “E3 ubiquitin-protein ligase RSP5 L333D, P39940”, the abundance fitness is reported as -0.472 ± 0.14. With “E3 ubiquitin-protein ligase RSP5 D361I, P39940” the abundance fitness was -0.632 ± 0.15. “E3 ubiquitin-protein ligase RSP5 H352Q, P39940” showed an abundance fitness of -0.19 ± 0.086. “E3 ubiquitin-protein ligase RSP5 E332R, P39940” gave an abundance fitness of -0.36 ± 0.043. Substance “E3 ubiquitin-protein ligase RSP5 L330Y, P39940” has an abundance fitness of -0.003 ± 0.08. Work on “E3 ubiquitin-protein ligase RSP5 V350K, P39940” yielded an abundance fitness of -0.537 ± 0.065. With “E3 ubiquitin-protein ligase RSP5 G324D, P39940” the abundance fitness was 0.06 ± 0.065. “E3 ubiquitin-protein ligase RSP5 T342V, P39940” gave an abundance fitness of -0.315 ± 0.047. For “E3 ubiquitin-protein ligase RSP5 R346S, P39940”, the abundance fitness was 0.15 ± 0.05. With “E3 ubiquitin-protein ligase RSP5 R346T, P39940” the abundance fitness was 0.094 ± 0.053.

Source: the Human Domainome abundance scans (Beltran et al. 2025)
